Source: paper PMC4481223
“And” between values parts separate entries of the source, which are not always exact repeats. Equal entries are not always repeated.

Tests used:
[1] = target: fused Cp (genetically-fused dimer of the hepatitis B virus core protein assembly domain) (hepatitis B virus); assay: native MS; non-covalent ESI-MS of oligomer samples isolated by SEC, button-dialysed into 100 mM ammonium acetate pH 6.8 (fused Cp samples at pH 9.5)
[2] = target: fused Cp (genetically-fused dimer of the hepatitis B virus core protein assembly domain) (hepatitis B virus); assay: SEC; pooled peaks 2-4 of the fused Cp disassembly re-run on a 26/60 Superdex-200 column calibrated with molecular weight standards, 1.0 ml/min; masses from the standard curve

fused Cp (genetically-fused dimer of the hepatitis B virus core protein assembly domain)
stoichiometry N [1]: 2 and 3
stoichiometry N [2]: 2 copies and 3 copies and 5 copies
